In patent US20210332110A1 (ROCKEFELLER UNIVERSITY, published 2021):

Target: Spike (S) protein of authentic SARS-CoV-2, strain USA-WA1/2020 (SARS-CoV-2, UniProt P0DTC2 14-1273)
Test: cell-based or functional assay

B1: C144 (antibody, V domains shown)
VH: EVQLVESGGGLIQPGGSLRLSCAASGFTVSNNYMSWVRQAPGKGLEWVSVIYSGGSTYYADSVKGRFTISRDKSKNTLYLQMNRLRAEDTAVYYCAREGEVEGYNDFWSGYSRDRYYFDYWGQGTLVTVSS
VL: QSALTQPASVSGSPGQSITISCTGTSSDVGGYNYVSWYQQHPGKAPKLMIYDVSNRPSGVSNRFSGSKSGNTASLTISGLQAEDEADYYCSSYTSSSTRVFGTGTKVTVL
- IC50, neutralization of authentic SARS-CoV-2: 2.55 ng/mL

B2: C121 (antibody, V domains shown)
VH: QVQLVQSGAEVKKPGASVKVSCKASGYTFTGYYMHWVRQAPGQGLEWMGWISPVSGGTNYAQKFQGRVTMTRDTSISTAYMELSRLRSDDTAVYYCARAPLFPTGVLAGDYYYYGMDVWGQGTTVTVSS
VL: QSALTQPASVSGSPGQSITISCTGTSSDVGSYNLVSWYQQHPGKAPKLMIYEGSKRPSGVSNRFSGSKSGNTASLTISGLQAEDEADYYCCSYAGSSTLVFGGGTKLTVL
- IC50, neutralization of authentic SARS-CoV-2: 1.64 ng/mL
